Tests used:
[1] = substrate: Oc1cc(O)c2ccccc2c1; experiment: purified protein; conditions: 2 mM GPP, 50 mM Hepes-NaOH pH 7.5, 5 mM MgCl2, 30 °C
[2] = substrate: O=C1C(O)=CC(=O)c2c(O)cc(O)cc21; experiment: purified protein; conditions: 2 mM GPP, 50 mM Hepes-NaOH pH 7.5, 5 mM MgCl2, 30 °C

B1: Fur7 (Streptomyces sp. KO-3988) (protein)
chain: MPGTDDVAVDVASVYSAIEKSAGLLDVTAAREVVWPVLTAFEDVLEQAVIAFRVATNARHEGDFDVRFTVPEEVDPYAVALSRSLIAKTDHPVGSLLSDIQQLCSVDTYGVDLGVKSGFKKVWVYFPAGEHETLARLTGLTSMPGSLAGNVDFFTRYGLADKVDVIGIDYRSRTMNVYFAAPSECFERETVLAMHRDIGLPSPSEQMFKFCENSFGLYTTLNWDTMEIERISYGVKTENPMTFFARLGTKVEHFVKNVPYGVDTQKMVYAAVTSSGEEYYKLQSYYRWRSVSRLNAAYIAARDKEST
Km [1]: 320 ± 20 µM | kcat [1]: 0.13 ± 0.05 × 10^-3 s^-1 | kcat/Km [1]: 0.41 M⁻¹ s⁻¹ | Km [2]: 48 ± 2 µM | kcat [2]: 28 ± 3 × 10^-3 s^-1 | kcat/Km [2]: 580 M⁻¹ s⁻¹
